Experimental data published in article PMC10552758, “Identification and characterization of a novel β-lactamase gene, blaAMZ–1, from Achromobacter mucicolens” (Frontiers in Microbiology, 2023).

Columns and labels:
[1] = molecular target: T1, AMZ-1 (Achromobacter mucicolens, UniProt Z9OND0BR39); experiment: nitrocefin hydrolysis, UV-VIS spectrophotometry; format: biochemical
T1 construct: ORF without signal peptide (cleavage 26/27) in pColdI, E. coli BL21(DE3); His-tag removed with enterokinase

[2] = system: CC(=O)OCC1=C(C(=O)O)N2C(=O)[C@@H](NC(=O)Cc3cccs3)[C@H]2SC1; experiment: UV-VIS hydrolysis, initial rates, Michaelis-Menten fit; format: biochemical, Achromobacter mucicolens; settings: 10 mM phosphate pH 7.0, 37°C
Source text: (§1) UV-VIS hydrolysis, initial rates, Michaelis-Menten fit on AMZ-1

[3] = system: CC1(C)S[C@@H]2[C@H](NC(=O)Cc3ccccc3)C(=O)N2[C@H]1C(=O)O; experiment: as above; format: biochemical, Achromobacter mucicolens; settings: 10 mM phosphate pH 7.0, 37°C
Source text: as §1

[4] = system: CC1(C)S[C@@H]2[C@H](NC(=O)[C@H](N)c3ccc(O)cc3)C(=O)N2[C@H]1C(=O)O; experiment: as above; format: biochemical, Achromobacter mucicolens; settings: 10 mM phosphate pH 7.0, 37°C
Source text: as §1

[5] = system: CO[C@@]1(NC(=O)Cc2cccs2)C(=O)N2C(C(=O)O)=C(COC(N)=O)CS[C@@H]21; experiment: as above; format: biochemical, Achromobacter mucicolens; settings: 10 mM phosphate pH 7.0, 37°C
Source text: as §1

NC(=O)[C@@H]1CC[C@@H]2CN1C(=O)N2OS(=O)(=O)O [avibactam]
IC50 [1]: 0.00082 µM

C[C@]1(Cn2ccnn2)[C@H](C(=O)O)N2C(=O)C[C@H]2S1(=O)=O [tazobactam]
IC50 [1]: 1090 µM

AMZ-1 (Achromobacter mucicolens)
Km [2]: 564.23 ± 56.35 µM | kcat [2]: 5.88 ± 0.39 s⁻¹ | kcat/Km [2]: 10400 ± 40 M⁻¹ s⁻¹ | Km [3]: 108.84 ± 8.12 µM | kcat [3]: 3.93 ± 0.13 s⁻¹ | kcat/Km [3]: 36300 ± 150 M⁻¹ s⁻¹ | Km [4]: 14.65 ± 1.274 µM | kcat [4]: 0.0947 ± 0.005 s⁻¹ | kcat/Km [4]: 6780 ± 1650 M⁻¹ s⁻¹ | Km [5]: 18.16 ± 3.88 µM | kcat [5]: 0.0805 ± 0.0137 s⁻¹ | kcat/Km [5]: 4540 ± 660 M⁻¹ s⁻¹
